Test results reported in IntAct's records for PubMed 22892567.

Target: cbx3_mouse Cbx3 (UniProt P23198)
Sequence (P23198 whole entry): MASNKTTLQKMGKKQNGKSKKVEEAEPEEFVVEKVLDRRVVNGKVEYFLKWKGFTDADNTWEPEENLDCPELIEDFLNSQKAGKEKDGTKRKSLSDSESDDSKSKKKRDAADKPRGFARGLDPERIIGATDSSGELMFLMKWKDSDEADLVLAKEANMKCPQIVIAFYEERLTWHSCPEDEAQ

| effect of a mutation on the interaction | Substance |
| --- | --- |
| disrupting interaction strength | Voltage-dependent L-type calcium channel subunit beta-4 (Rattus norvegicus (Rat)) (from UniProt D4A055) P220A |
| disrupting interaction | Voltage-dependent L-type calcium channel subunit beta-4 (Rattus norvegicus (Rat)) (from UniProt D4A055) V222A |
